{"source": "patent US20260218140", "biological_target": "T1, 5-270 TNA polymerase (synthetic construct (chimera of Thermococcus/Pyrococcus B-family polymerases)) (UniProt P56689)", "T1 sequence": "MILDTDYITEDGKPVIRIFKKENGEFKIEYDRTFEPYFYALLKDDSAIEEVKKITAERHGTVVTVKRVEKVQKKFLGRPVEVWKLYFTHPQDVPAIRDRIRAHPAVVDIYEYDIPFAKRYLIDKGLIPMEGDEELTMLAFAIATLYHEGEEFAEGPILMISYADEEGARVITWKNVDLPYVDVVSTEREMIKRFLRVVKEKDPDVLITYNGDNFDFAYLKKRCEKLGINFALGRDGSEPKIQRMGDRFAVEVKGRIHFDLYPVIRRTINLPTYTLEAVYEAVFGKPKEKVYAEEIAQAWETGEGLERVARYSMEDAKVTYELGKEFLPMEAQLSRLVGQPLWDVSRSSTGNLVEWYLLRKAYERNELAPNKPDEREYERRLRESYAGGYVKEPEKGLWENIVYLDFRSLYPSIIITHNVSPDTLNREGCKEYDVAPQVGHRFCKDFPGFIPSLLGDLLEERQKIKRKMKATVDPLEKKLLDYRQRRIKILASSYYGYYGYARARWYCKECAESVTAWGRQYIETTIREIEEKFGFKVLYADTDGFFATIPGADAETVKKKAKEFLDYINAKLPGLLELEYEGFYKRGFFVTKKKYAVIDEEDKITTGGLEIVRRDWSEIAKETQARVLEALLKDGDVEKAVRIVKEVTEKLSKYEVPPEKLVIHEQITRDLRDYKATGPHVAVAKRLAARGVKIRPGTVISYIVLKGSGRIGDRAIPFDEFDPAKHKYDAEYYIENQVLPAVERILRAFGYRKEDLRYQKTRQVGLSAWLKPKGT", "details": "TNA primer extension; ~2-fold figure is from text on the clone screen"}
{"sequence": "GTCCCCTTGGGGATACCACC / TCGTTCTCGGACGGAGAGATATTGAANGGTGGTATCCCCAAGGGGAC [PBS8 primer / L30.5 random library template]", "values": [{"measurement": "binding signal (fold vs Kod-RSGA)", "value": 2}]}
